Measurements as given in paper PMC2556094 (The EMBO Journal, 2008).

What was measured:
[1] = target: Hsp90 (of the ITC in Supplementary Figure 1); experiment: ITC
human Skp1 (human) = human Skp1 (human) (UniProt P63208); experiment: ITC
His6-tagged human Hsp90β = His6-tagged human Hsp90β (human, UniProt P08238 1-724); experiment: pull-down
Sequence of His6-tagged human Hsp90β (P08238 whole entry): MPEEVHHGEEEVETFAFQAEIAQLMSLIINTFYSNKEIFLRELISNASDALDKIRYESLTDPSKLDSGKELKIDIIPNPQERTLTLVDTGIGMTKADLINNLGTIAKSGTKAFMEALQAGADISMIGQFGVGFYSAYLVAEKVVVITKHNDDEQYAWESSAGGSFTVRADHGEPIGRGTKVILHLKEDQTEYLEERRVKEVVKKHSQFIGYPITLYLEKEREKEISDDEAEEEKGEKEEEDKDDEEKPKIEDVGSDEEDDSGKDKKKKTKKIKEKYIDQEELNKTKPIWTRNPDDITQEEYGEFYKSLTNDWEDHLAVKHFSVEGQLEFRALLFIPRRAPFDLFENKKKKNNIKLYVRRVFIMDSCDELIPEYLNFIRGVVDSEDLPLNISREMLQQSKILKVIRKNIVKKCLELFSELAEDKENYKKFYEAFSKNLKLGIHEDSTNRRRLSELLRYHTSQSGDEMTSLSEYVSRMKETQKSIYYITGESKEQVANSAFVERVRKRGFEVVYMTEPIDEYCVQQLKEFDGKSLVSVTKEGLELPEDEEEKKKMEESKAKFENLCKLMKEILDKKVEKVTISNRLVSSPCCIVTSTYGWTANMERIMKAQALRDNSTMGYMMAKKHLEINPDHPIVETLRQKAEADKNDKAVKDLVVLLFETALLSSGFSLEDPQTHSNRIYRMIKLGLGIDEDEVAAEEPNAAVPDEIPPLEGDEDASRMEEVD

| stoichiometry N [1] | Kd (human Skp1 (human)) | binding result (His6-tagged human Hsp90β) | Molecule |
| --- | --- | --- | --- |
| 1 |  |  | Sgt1 (of the ITC in Supplementary Figure 1) (natural protein) |
|  | 1640 nM | binds | human Sgt1, wild type (natural protein, UniProt Q9Y2Z0-2 1-333, looked up) MAAAAAGTATSQRFFQSFSDALIDEDPQAALEELTKALEQKPDDAQYYCQRAYCHILLGNYCVAVADAKKSLELNPNNSTAMLRKGICEYHEKNYAAALETFTEGQKLDSADANFSVWIKRCQEAQNGSESEVWTHQSKIKYDWYQTESQVVITLMIKNVQKNDVNVEFSEKELSALVKLPSGEDYNLKLELLHPIIPEQSTFKVLSTKIEIKLKKPEAVRWEKLEGQGDVPTPKQFVADVKNLYPSSSPYTRNWDKLVGEIKEEEKNEKLEGDAALNRLFQQIYSDGSDEVKRAMNKSFMESGGTVLSTNWSDVGKRKVEINPPDDMEWKKY |
